Assay results from US20250011431A1 (ADIVO, published 2025).

T1: cPD-L1_hFc (canine PD-L1 Fc-fusion protein; Sino Biological Cat. 70110-D02H) (canine; human)
T1 construct: Bought product; also called canine PD-L1_hFc; cPD-L1 fusion protein; not shown: human Fc tag (hFc)
T1 chain: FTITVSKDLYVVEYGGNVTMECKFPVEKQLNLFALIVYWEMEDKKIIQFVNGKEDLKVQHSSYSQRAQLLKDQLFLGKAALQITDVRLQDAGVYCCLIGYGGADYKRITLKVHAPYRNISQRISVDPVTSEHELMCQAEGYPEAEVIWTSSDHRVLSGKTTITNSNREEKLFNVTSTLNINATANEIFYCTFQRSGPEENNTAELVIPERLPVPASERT

T2: PD-L1-his (canine)
T2 construct: also called monovalent PD-L1 antigen; not shown: his tag
T2 chain: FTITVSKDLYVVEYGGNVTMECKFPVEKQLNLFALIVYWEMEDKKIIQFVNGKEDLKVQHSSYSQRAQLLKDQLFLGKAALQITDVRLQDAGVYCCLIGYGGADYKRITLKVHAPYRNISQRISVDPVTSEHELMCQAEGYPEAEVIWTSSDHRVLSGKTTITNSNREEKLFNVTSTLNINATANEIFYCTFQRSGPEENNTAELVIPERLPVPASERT

T3: canine PD-L1 on cells (canine)
T3 construct: also called wildtype canine PD-L1 on transfected HEK293c18 cells
T3 chain: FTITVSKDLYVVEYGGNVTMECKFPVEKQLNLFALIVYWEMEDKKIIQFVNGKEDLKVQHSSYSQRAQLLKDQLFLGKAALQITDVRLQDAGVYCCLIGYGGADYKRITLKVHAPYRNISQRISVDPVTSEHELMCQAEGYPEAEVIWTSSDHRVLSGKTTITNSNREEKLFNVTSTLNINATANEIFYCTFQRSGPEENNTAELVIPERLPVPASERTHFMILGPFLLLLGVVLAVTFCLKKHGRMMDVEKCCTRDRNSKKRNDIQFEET


Assays:
[1] = biological target: T1, cPD-L1_hFc (canine PD-L1 Fc-fusion …); assay: ELISA ligand-binding inhibition, cPD-L1_hFc on the plate, competitor PD-1-Biotin (206 nM)
Procedure: cPD-L1 fusion proteins were directly immobilized on the plate overnight at 4° C., commonly in a concentration of 57 nM. For […] ELISA, black 384 well Maxisorp plates were used. The coated plates were washed 3× with PBS-T, followed by blocking with Chemiblocker (Merck-Millipore; 2170) for 1 h at RT. The blocked plates were washed 3× with PBS-T, followed by addition of titration-series of blocking antibodies and incubation for 1 h at RT. Subsequently plates were washed again 3× with PBS-T and PD-1-Biotin (1× biotinylated via Avi-tag; Sinobiological Cat.: 70109-D27H-B) was added and incubated for 1 h at RT, usually in a concentration of 4 μg/ml (206 nM). This concentration of canine PD-1-Biotin was previously identified as optimal by titrating the binding of PD-1-Biotin towards immobilized canine PD-L1_hFc. After incubation with the ligand PD-1, the plate was washed 3× with PBS-T and suitable detection reagent for the biotinylated PD-1, usually Streptavidin-HRP, was added and incubated for 1 h at RT. Subsequently, the plate was washed 5×, followed by addition of Quanta Blue and measurement as described above for the screening ELISA.

[2] = biological target: T1, cPD-L1_hFc (canine PD-L1 Fc-fusion …); assay: binding ELISA, cPD-L1 fusion protein on the plate
PD-L1-his [3] = biological target: T2, PD-L1-his; assay: grating-coupled interferometry (waveRAPID): antibody captured on PAG chip, PD-L1-his as analyte, 1:1 fit, 25 C
Procedure: (§1) To further characterize the kinetic properties of our candidates CAN1005016 and CAN1005019, the KD of our candidates was quantified using waveRAPID in a GCI system according to the procedure described below. The binding kinetics study was performed on the Creoptix® WAVEdelta system using a PAG sensor chip (Creoptix, a Malvern Panalytical brand). All experiments were performed with HBS-EP (Cytiva) as running buffer, at a temperature of 25° C. and sampling rate of 10 Hz. Data acquisition and evaluation were performed using WAVEcontrol software version 4.5.13.
(§2) Prior to ligand capturing, the sensor chip was conditioned by a 180 sec injection of 100 mM sodium borate, 1 M NaCl, pH 9 (Xantec). Antibody was diluted to 1 μg/ml in HBS-EP and captured to a density of =300 pg/mm2 on flow channel 2. Flow channel 1 was left blank to serve as a reference surface. For collection of kinetic data, PD-L1-his was diluted to 200 nM in HBS-EP and injected over ligand and reference surfaces in repeated analyte pulses of increasing duration (waveRAPID) at flowrate of 60 μl/min. PD-L1-his was injected for a total duration of 180 sec, followed by measuring complex-dissociation in running buffer for 30 min. Blank injections were performed to enable double referencing of the data and a 0.5% DMSO pulse injection (running buffer with 0.5% DMSO) was used as an analyte concentration modulation calibration curve. Data were corrected (X and Y offset, DMSO calibration, double referencing) and fitted with a simple 1:1 interaction model (global fit) to obtain kinetic parameters.

canine PD-L1 on cells = biological target: T3, canine PD-L1 on cells; assay: flow cytometry on HEK293c18 cells transfected with canine PD-L1
Procedure: HEK293c18 cells were seeded in 6 well plates at a density of 1×10⁶ cells/well in DMEM+10% FCS. The next day, the transfection mix was prepared. […] Per well, 2 μg of the plasmid encoding for wildtype canine PD-L1 was diluted in 200 μl jetPRIME buffer. The solution was mixed and 4 μl of the transfection reagent was added, followed by mixing and centrifuging of the mixture. Then, the medium of the adherent cells is replaced by fresh medium and the transfection mix is carefully added onto the cells. The plate containing the transfected cells is placed back in the incubator and incubated for 24 h.
The cells were washed once by addition of 200 μl per well PBS/EDTA and centrifugation at 1500 rpm for 5 min. The supernatant was carefully decanted by holding the plate upside down above a waste and dried on a paper towel. Then, the cells were stained for dead cells with the dye Zombie violet (Biolegend; Cat.: 423114) diluted 1:500 in PBS/EDTA for 15 minutes at 4° C. in the dark. Subsequently, cells were washed with FACS Buffer (PBS/EDTA+2% FCS) as described above. Titration series of CAN1005016 and CAN1005019 usually ranging from 10 ng/ml to 10 μg/ml were prepared diluted in FACS buffer and added to the respective wells for a 30-minute incubation at 4° C. in the dark. […] Finally, the cells were washed again 3× and then resuspended in 200 μl FACS buffer and measured directly.

[4] = biological target: T1, cPD-L1_hFc (canine PD-L1 Fc-fusion …); assay: binding ELISA, IgG titrated on plate-bound cPD-L1_hFc
Procedure: cPD-L1 fusion proteins were directly immobilized on the plate, commonly in a concentration of 57 nM. For binding ELISA, black 384 well Maxisorp plates were used. This was performed overnight at 4° C. The coated plates were washed 3× with PBS-T, followed by blocking with Chemiblocker (Merck-Millipore; 2170) for 1 h at RT. After blocking, dilution series of the respective antibodies were added to the plate usually covering concentrations ranging from the single digit ng/ml to the single-digit ug/ml range. Antibodies were also incubated for 1 h at RT, followed by washing and by addition of suitable detection antibodies coupled to HRP. Measurement was carried out as described above for the Screening ELISA.

PD-L1-his [5] = biological target: T2, PD-L1-his; assay: grating-coupled interferometry, KD compared with that of CAN1005010H2
Procedure: as §1
as §2, with “Data were corrected (X and Y offset, DMSO calibration, double referencing) and fitted with a simple 1:1 interaction model (global fit) to obtain kinetic parameters.” left out

IC50 [1]	EC50 [2]	Kd (PD-L1-his [3])	EC50 (canine PD-L1 on cells)	EC50 [4]	fold improvement in affinity against CAN1005010H2 (PD-L1-his [5])	Binder
4.6 nM	0.4 nM					CAN1005001 IgG (antibody, V domains shown, also called initial clone CAN1005001; parental clone CAN1005001) VH: EVQLVESGGDLVKPAGSLRLSCVASGFTFSSYSMSWVRQAPEKGLQLVAGISSGGSSTYYTDAVKGRFTISRDNAKNTVYLQMNSLRAEDTAMYYCARGQGGRSSFDYWGQGTLVTVSS VL: SYVLTQLPSVSVTLRQTARITCGGDSIGSKNVYWYQQKLGQAPVLIIYDDSSRPSGIPERFSGANSGNTATLTISGALAEDEADYYCQSYAMPLTGTVFGGGTQLTVL
0.95 nM		0.77 nM	10.5 nM	0.076 nM	> 3 fold	CAN1005016 IgG (antibody, V domains shown, also called biotinylated CAN1005016) VH: EVQLVESGGDLVKPGGTLRLSCVASGFTFSSYDMSWVRQSPGKGLQWVAVIWNTGSHAYYADAVKGRFTISRDNAKNTLYLQMNSLRAEDTAVYYCARGRQPRLVGTLDLWGQGTLVTVSS VL: SYVLTQLPSVSVTLRQTARITCGGDSIGSKNVYWYQQKLGQAPVLIIYDDSSRPSGIPERFSGANSGNTATLTISGALAEDEADYYCQTYDSLVDVGVFGGGTQLTVLG
